Test in all cases: cell-based or functional assay
Assay [1] concerns the target EGFR overexpressed on U87 MG EGFR cells (UniProt P00533).
The target in assay [2] is EGFRvIII (EGFR with deletion of exons 2-7) on U87 MG-EGFRvIII cells (human) (UniProt P00533).
The target of assay [3] is endogenous EGFR at low level on U87 MG cells (human) (UniProt P00533).

On to humanized monoclonal antibody ch806, for which, in assay [1], the EC50 values of cytotoxicity on MG-EGFR cells was 6.48 µM; the cytotoxicity % at 0.0002 nM, U87 MG EGFR cells with PBMC stood at 1.89%; the cytotoxicity % at 0.002 nM, U87 MG EGFR cells with PBMC stood at 0.61%; the cytotoxicity % at 0.02 nM, U87 MG EGFR cells with PBMC stood at 1.31%. In assay [1], this substance had a cytotoxicity % at 0.2 nM, U87 MG EGFR cells with PBMC of 0.37%; a cytotoxicity % at 2 nM, U87 MG EGFR cells with PBMC of 0.49%; a cytotoxicity % at 20 nM, U87 MG EGFR cells with PBMC of 4.92%. Besides, in assay [2], the EC50 values of cytotoxicity on U87 MG-EGFRvIII cells is 0.0408 µM; the cytotoxicity % at 0.0002 nM, U87 MG EGFRvIII cells with PBMC was 0.41%; the cytotoxicity % at 0.002 nM, U87 MG EGFRvIII cells with PBMC is 0.62%; the cytotoxicity % at 0.02 nM, U87 MG EGFRvIII cells with PBMC came out at 0.76%. In addition, in assay [2], the cytotoxicity % at 0.2 nM, U87 MG EGFRvIII cells with PBMC worked out at 15.6%; the cytotoxicity % at 2 nM, U87 MG EGFRvIII cells with PBMC is 22.3%; the cytotoxicity % at 20 nM, U87 MG EGFRvIII cells with PBMC was 36.3%. Besides, in assay [3], the cytotoxicity % at 0.0002 nM, U87 MG cells with PBMC was 0.96%; the cytotoxicity % at 0.002 nM, U87 MG cells with PBMC came out at 0.71%; the cytotoxicity % at 0.02 nM, U87 MG cells with PBMC amounted to 0.71%; the cytotoxicity % at 0.2 nM, U87 MG cells with PBMC was 0.07%. In addition, in assay [3], the cytotoxicity % at 2 nM, U87 MG cells with PBMC is 0.28% and the cytotoxicity % at 20 nM, U87 MG cells with PBMC turned out to be 4.18%.

(Values after patent US20150093386A1.)
